Experimental data published in the RNAGym collection of RNA variant scans (doi:10.7554/elife.80360).

B1: Hammerhead Ribozyme (parent)
chain: ACCGGAUGUGCUUUCCGGUCUGAUGAGUCCGUGAGGACGAAACAG

Variants of: B1
Experiment: self-cleavage, relative activity (ratio to wild type); higher = more cleavage; co-transcriptional

Variant	self-cleavage
AGGGGAUGUGCUUUCCGGUCUGAUGAGUCCGUGAGGACGAAACAG	0.353
AGUGGAUGUGCUUUCCGGUCUGAUGAGUCCGUGAGGACGAAACAG	0.36
AGCGGAUGUGAUUUCCGGUCUGAUGAGUCCGUGAGGACGAAACAG	0.378
AGCGGAUGUGGUUUCCGGUCUGAUGAGUCCGUGAGGACGAAACAG	0.402
AGCGGAUGUGUUUUCCGGUCUGAUGAGUCCGUGAGGACGAAACAG	0.32
AGCGGAUGUGCUUUACGGUCUGAUGAGUCCGUGAGGACGAAACAG	0.302
AGCGGAUGUGCUUUGCGGUCUGAUGAGUCCGUGAGGACGAAACAG	0.29
AGCGGAUGUGCUUUUCGGUCUGAUGAGUCCGUGAGGACGAAACAG	0.304
AGCGGAUGUGCUUUCAGGUCUGAUGAGUCCGUGAGGACGAAACAG	0.335
AGCGGAUGUGCUUUCGGGUCUGAUGAGUCCGUGAGGACGAAACAG	0.294
AGCGGAUGUGCUUUCUGGUCUGAUGAGUCCGUGAGGACGAAACAG	0.299
AGCGGAUGUGCUUUCCGGUAUGAUGAGUCCGUGAGGACGAAACAG	0.274
AGCGGAUGUGCUUUCCGGUGUGAUGAGUCCGUGAGGACGAAACAG	0.297
AGCGGAUGUGCUUUCCGGUUUGAUGAGUCCGUGAGGACGAAACAG	0.344
AGCGGAUGUGCUUUCCGGUCUGAUGAGUACGUGAGGACGAAACAG	0.311
AGCGGAUGUGCUUUCCGGUCUGAUGAGUGCGUGAGGACGAAACAG	0.354
AGCGGAUGUGCUUUCCGGUCUGAUGAGUUCGUGAGGACGAAACAG	0.365
AGCGGAUGUGCUUUCCGGUCUGAUGAGUCAGUGAGGACGAAACAG	0.374
AGCGGAUGUGCUUUCCGGUCUGAUGAGUCGGUGAGGACGAAACAG	0.237

Variant	self-cleavage
AGCGGAUGUGCUUUCCGGUCUGAUGAGUCUGUGAGGACGAAACAG	0.354
AGCGGAUGUGCUUUCCGGUCUGAUGAGUCCGUGAGGAAGAAACAG	0.336
AGCGGAUGUGCUUUCCGGUCUGAUGAGUCCGUGAGGAGGAAACAG	0.317
AGCGGAUGUGCUUUCCGGUCUGAUGAGUCCGUGAGGAUGAAACAG	0.338
AGCGGAUGUGCUUUCCGGUCUGAUGAGUCCGUGAGGACGAAAAAG	0.328
AGCGGAUGUGCUUUCCGGUCUGAUGAGUCCGUGAGGACGAAAGAG	0.308
AGCGGAUGUGCUUUCCGGUCUGAUGAGUCCGUGAGGACGAAAUAG	0.305
AGCAGAUGUGCUUUCCGGUCUGAUGAGUCCGUGAGGACGAAACAG	0.322
AGCCGAUGUGCUUUCCGGUCUGAUGAGUCCGUGAGGACGAAACAG	0.233
AGCUGAUGUGCUUUCCGGUCUGAUGAGUCCGUGAGGACGAAACAG	0.219
AGCGAAUGUGCUUUCCGGUCUGAUGAGUCCGUGAGGACGAAACAG	0.295
AGCGCAUGUGCUUUCCGGUCUGAUGAGUCCGUGAGGACGAAACAG	0.309
AGCGUAUGUGCUUUCCGGUCUGAUGAGUCCGUGAGGACGAAACAG	0.296
AGCGGAUAUGCUUUCCGGUCUGAUGAGUCCGUGAGGACGAAACAG	0.385
AGCGGAUCUGCUUUCCGGUCUGAUGAGUCCGUGAGGACGAAACAG	0.302
AGCGGAUUUGCUUUCCGGUCUGAUGAGUCCGUGAGGACGAAACAG	0.387
AGCGGAUGUACUUUCCGGUCUGAUGAGUCCGUGAGGACGAAACAG	0.383
AGCGGAUGUCCUUUCCGGUCUGAUGAGUCCGUGAGGACGAAACAG	0.38
AGCGGAUGUUCUUUCCGGUCUGAUGAGUCCGUGAGGACGAAACAG	0.379

Variant	self-cleavage
AGCGGAUGUGCUUUCCAGUCUGAUGAGUCCGUGAGGACGAAACAG	0.377
AGCGGAUGUGCUUUCCCGUCUGAUGAGUCCGUGAGGACGAAACAG	0.329
AGCGGAUGUGCUUUCCUGUCUGAUGAGUCCGUGAGGACGAAACAG	0.291
AGCGGAUGUGCUUUCCGAUCUGAUGAGUCCGUGAGGACGAAACAG	0.459
AGCGGAUGUGCUUUCCGCUCUGAUGAGUCCGUGAGGACGAAACAG	0.651
AGCGGAUGUGCUUUCCGUUCUGAUGAGUCCGUGAGGACGAAACAG	0.669
AGCGGAUGUGCUUUCCGGUCUAAUGAGUCCGUGAGGACGAAACAG	0.292
AGCGGAUGUGCUUUCCGGUCUCAUGAGUCCGUGAGGACGAAACAG	0.296
AGCGGAUGUGCUUUCCGGUCUUAUGAGUCCGUGAGGACGAAACAG	0.312
AGCGGAUGUGCUUUCCGGUCUGAUAAGUCCGUGAGGACGAAACAG	0.325
AGCGGAUGUGCUUUCCGGUCUGAUCAGUCCGUGAGGACGAAACAG	0.267
AGCGGAUGUGCUUUCCGGUCUGAUUAGUCCGUGAGGACGAAACAG	0.272
AGCGGAUGUGCUUUCCGGUCUGAUGAAUCCGUGAGGACGAAACAG	0.282
AGCGGAUGUGCUUUCCGGUCUGAUGACUCCGUGAGGACGAAACAG	0.303
AGCGGAUGUGCUUUCCGGUCUGAUGAUUCCGUGAGGACGAAACAG	0.327
AGCGGAUGUGCUUUCCGGUCUGAUGAGUCCAUGAGGACGAAACAG	0.43
AGCGGAUGUGCUUUCCGGUCUGAUGAGUCCCUGAGGACGAAACAG	0.376
AGCGGAUGUGCUUUCCGGUCUGAUGAGUCCUUGAGGACGAAACAG	0.503
AGCGGAUGUGCUUUCCGGUCUGAUGAGUCCGUAAGGACGAAACAG	0.463
